First the molecules themselves.
B1: Putative pre-mRNA-splicing factor ATP-dependent RNA helicase DHX32 (Homo sapiens), Q7L7V1 (parent)
chain: MEEEGLECPNSSSEKRYFPESLDSSDGDEEEVLACEDLELNPFDGLPYSSRYYKLLKEREDLPIWKEKYSFMENLLQNQIVIVSGDAKCGKSAQVPQWCAEYCLSIHYQHGGVICTQVHKQTVVQLALRVADEMDVNIGHEVGYVIPFENCCTNETILRYCTDDMLQREMMSNPFLGSYGVIILDDIHERSIATDVLLGLLKDVLLARPELKLIINSSPHLISKLNSYYGNVPVIEVKNKHPVEVVYLSEAQKDSFESILRLIFEIHHSGEKGDIVVFLACEQDIEKVCETVYQGSNLNPDLGELVVVPLYPKEKCSLFKPLDETEKRCQVYQRRVVLTTSSGEFLIWSNSVRFVIDVGVERRKVYNPRIRANSLVMQPISQSQAEIRKQILGSSSSGKFFCLYTEEFASKDMTPLKPAEMQEANLTSMVLFMKRIDIAGLGHCDFMNRPAPESLMQALEDLDYLAALDNDGNLSEFGIIMSEFPLDPQLSKSILASCEFDCVDEVLTIAAMVTAPNCFSHVPHGAEEAALTCWKTFLHPEGDHFTLISIYKAYQDTTLNSSSEYCVEKWCRDYFLNCSALRMADVIRAELLEIIKRIELPYAEPAFGSKENTLNIKKALLSGYFMQIARDVDGSGNYLMLTHKQVAQLHPLSGYSITKKMPEWVLFHKFSISENNYIRITSEISPELFMQLVPQYYFSNLPPSESKDILQQVVDHLSPVSTMNKEQQMCETCPETEQRCTLQ
partner: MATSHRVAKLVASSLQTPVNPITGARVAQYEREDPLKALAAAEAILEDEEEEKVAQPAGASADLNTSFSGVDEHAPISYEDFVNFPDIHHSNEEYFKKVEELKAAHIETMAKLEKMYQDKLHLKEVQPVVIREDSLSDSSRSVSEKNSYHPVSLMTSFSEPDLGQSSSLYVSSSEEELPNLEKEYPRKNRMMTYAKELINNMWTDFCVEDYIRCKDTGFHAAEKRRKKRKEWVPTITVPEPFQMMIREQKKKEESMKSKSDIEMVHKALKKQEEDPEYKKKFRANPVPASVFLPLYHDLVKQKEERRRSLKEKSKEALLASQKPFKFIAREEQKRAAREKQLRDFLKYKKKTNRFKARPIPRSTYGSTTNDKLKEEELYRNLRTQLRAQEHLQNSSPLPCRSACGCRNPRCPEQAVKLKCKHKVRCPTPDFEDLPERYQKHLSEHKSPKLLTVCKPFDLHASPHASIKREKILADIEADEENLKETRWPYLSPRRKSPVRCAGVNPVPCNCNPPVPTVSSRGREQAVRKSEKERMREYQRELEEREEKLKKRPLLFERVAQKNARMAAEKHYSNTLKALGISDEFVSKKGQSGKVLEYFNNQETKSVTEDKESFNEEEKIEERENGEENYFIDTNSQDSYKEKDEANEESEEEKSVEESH
B2: Cyclin-D1-binding protein 1 (Homo sapiens), O95273 (parent)
chain: MASATAPAAAVPTLASPLEQLRHLAEELRLLLPRVRVGEAQETTEEFNREMFWRRLNEAAVTVSREATTLTIVFSQLPLPSPQETQKFCEQVHAAIKAFIAVYYLLPKDQGITLRKLVRGATLDIVDGMAQLMEVLSVTPTQSPENNDLISYNSVWVACQQMPQIPRDNKAAALLMLTKNVDFVKDAHEEMEQAVEECDPYSGLLNDTEENNSDNHNHEDDVLGFPSNQDLYWSEDDQELIIPCLALVRASKACLKKIRMLVAENGKKDQVAQLDDIVDISDEISPSVDDLALSIYPPMCHLTVRINSAKLVSVLKKALEITKASHVTPQPEDSWIPLLINAIDHCMNRIKELTQSELEL
partner: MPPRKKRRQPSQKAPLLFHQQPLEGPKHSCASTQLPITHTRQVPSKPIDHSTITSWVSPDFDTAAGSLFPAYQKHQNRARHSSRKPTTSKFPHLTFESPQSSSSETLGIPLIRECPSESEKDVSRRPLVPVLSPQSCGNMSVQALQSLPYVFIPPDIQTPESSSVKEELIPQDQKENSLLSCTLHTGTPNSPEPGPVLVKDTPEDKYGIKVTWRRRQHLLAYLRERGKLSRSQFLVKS
B3: Vesicle transport through interaction with t-SNAREs homolog 1B (Homo sapiens), Q9UEU0 (parent)
chain: MASSAASSEHFEKLHEIFRGLHEDLQGVPERLLGTAGTEEKKKLIRDFDEKQQEANETLAEMEEELRYAPLSFRNPMMSKLRNYRKDLAKLHREVRSTPLTATPGGRGDMKYGIYAVENEHMNRLQSQRAMLLQGTESLNRATQSIERSHRIATETDQIGSEIIEELGEQRDQLERTKSRLVNTSENLSKSRKILRSMSRKVTTNKLLLSIIILLELAILGGLVYYKFFRSH
partner: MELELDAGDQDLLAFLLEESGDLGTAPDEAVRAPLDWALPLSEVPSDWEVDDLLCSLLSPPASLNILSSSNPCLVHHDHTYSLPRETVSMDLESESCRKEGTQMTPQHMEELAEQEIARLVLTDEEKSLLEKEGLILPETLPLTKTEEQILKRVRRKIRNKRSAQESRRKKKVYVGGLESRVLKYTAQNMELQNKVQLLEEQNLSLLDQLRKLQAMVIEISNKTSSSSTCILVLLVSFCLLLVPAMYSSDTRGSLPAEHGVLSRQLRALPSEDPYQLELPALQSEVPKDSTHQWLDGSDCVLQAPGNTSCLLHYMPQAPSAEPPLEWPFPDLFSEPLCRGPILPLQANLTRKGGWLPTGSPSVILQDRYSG
B4: Dual specificity protein phosphatase 21 (Homo sapiens), Q9H596 (parent)
chain: MTASASSFSSSQGVQQPSIYSFSQITRSLFLSNGVAANDKLLLSSNRITAIVNASVEVVNVFFEGIQYIKVPVTDARDSRLYDFFDPIADLIHTIDMRQGRTLLHCMAGVSRSASLCLAYLMKYHSMSLLDAHTWTKSRRPIIRPNNGFWEQLINYEFKLFNNNTVRMINSPVGNIPDIYEKDLRMMISM
B5: Four and a half LIM domains protein 3 (Homo sapiens), Q13643 (parent)
chain: MSESFDCAKCNESLYGRKYIQTDSGPYCVPCYDNTFANTCAECQQLIGHDSRELFYEDRHFHEGCFRCCRCQRSLADEPFTCQDSELLCNDCYCSAFSSQCSACGETVMPGSRKLEYGGQTWHEHCFLCSGCEQPLGSRSFVPDKGAHYCVPCYENKFAPRCARCSKTLTQGGVTYRDQPWHRECLVCTGCQTPLAGQQFTSRDEDPYCVACFGELFAPKCSSCKRPIVGLGGGKYVSFEDRHWHHNCFSCARCSTSLVGQGFVPDGDQVLCQGCSQAGP
partner: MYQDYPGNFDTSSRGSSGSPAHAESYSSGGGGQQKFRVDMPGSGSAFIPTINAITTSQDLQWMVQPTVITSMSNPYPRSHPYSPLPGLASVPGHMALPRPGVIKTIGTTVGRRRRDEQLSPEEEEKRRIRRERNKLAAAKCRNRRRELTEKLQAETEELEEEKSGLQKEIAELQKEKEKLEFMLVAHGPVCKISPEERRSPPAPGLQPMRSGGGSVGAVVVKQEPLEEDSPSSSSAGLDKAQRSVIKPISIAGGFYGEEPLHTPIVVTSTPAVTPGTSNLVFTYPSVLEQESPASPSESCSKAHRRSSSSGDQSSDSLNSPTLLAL

In the first test the parent is B1. To be noted: with FAM161A.
With D301A, the “effect of a mutation on the interaction” value is listed as “with no effect”.

Variants of B2 are the subject of a further test. The following applies: with rhno1_human RHNO1, Q9BSD3.
As to MASATAPAAAVPTLASPLEQLRHLAEELRLLLPRVRVGEAQETTEEFNREMFWRRLNEAAVTVSREATTLTIVFSQLPLPSPQETQKFCEQVHAAIKAFIAVYYLLPKDQGITLRKLVRGATLDIVDGMAQLMEVLSVTPTQSPENNDLISYNSVWVACQQMPQIPRDNKAAALLMLTKNVDFVKDAHEEMEQAVEECDPYSGLLNDTEENNSDNHNHEDDVLGFPSNQDLYWSEDDQELIIPCLALVRASKACLKKIRMLVAENGKKDQVAQLDDTVDISDEISPSVDDLALSIYPPMCHLTVRINSAKLVSVLKKALEITKASHVTPQPEDSWIPLLINAIDHCMNRIKELTQSELEL [I277T], the “effect of a mutation on the interaction” value is recorded as “disrupting interaction strength”.

The variants in another test derive from B3. The following applies: with creb3_human CREB3, O43889.
As for MASSAASSEHFEKLHEIFRGLHEDLQGVPERLLGTAGTEEKKKLIRDFDEKQQEANETLAEMEEELRYAPLSFRNPMMSKLRNYRKDLAKLHREVRSTPLTATPGGRGDMKYGIYAVENEHMNRLQSQRAMLLQGTESLNRATQSIERSHRIATETDQIGSEIIEELGEQRDQLEHTKSRLVNTSENLSKSRKILRSMSRKVTTNKLLLSIIILLELAILGGLVYYKFFRSH [R176H], the “effect of a mutation on the interaction” value was “with no effect”.

Variants of B4 are the subject of another test. To be noted: with gors2_human GORASP2, Q9H8Y8.
MTASASSFSSSQGVQQPFIYSFSQITRSLFLSNGVAANDKLLLSSNRITAIVNASVEVVNVFFEGIQYIKVPVTDARDSRLYDFFDPIADLIHTIDMRQGRTLLHCMAGVSRSASLCLAYLMKYHSMSLLDAHTWTKSRRPIIRPNNGFWEQLINYEFKLFNNNTVRMINSPVGNIPDIYEKDLRMMISM [S18F]: the “effect of a mutation on the interaction” value is “with no effect”.

In a further test the parent is B5. To be noted: with fosl2_human FOSL2, P15408.
With MSESFDCAKCNESLYGRKYIQTDSGPYCVPCYDNTFANTCAECQQLIGHDSRELFYEDRHFHEGCFRCCRCQRSLADEPFTCQDSELLCNDCYCSAFSSQCSACGETVMPGSRKLEYGGQTWHEHCFLCSGCEQPLGSRSFVPDKGAHYCVPCYENKFAPRCARCSKTLTQGGVTYRDQPWHRECLVCTGCQTPLAGQQFTSRDEDPYCVACFGELFAPKCSSCKHPIVGLGGGKYVSFEDRHWHHNCFSCARCSTSLVGQGFVPDGDQVLCQGCSQAGP [R226H], the “effect of a mutation on the interaction” value is listed as “with no effect”.

These data come from IntAct's records for PubMed 31515488.
